From patent US20260167959A1, “APTAZYME-BASED REGULATABLE GENE EXPRESSION SYSTEMS” (REJUVENATE BIO INC, priority 2022, published 2026)

B1: RA330 (nucleic acid)
DNA: GCGCGTCCTGGGAGAATACCAGCATCGTCTTGATGCCCTTGGAAGTCTCATTCGCGGAAACGCGTACATCCAGCTGACGAGTCCCAAATAGGACGAAACGCGC
modifications: expressed or natural sequence
B2: RA332 (nucleic acid)
DNA: GCGCGTCCTGGATTCGCGGAAACGCGTACATCCAGCTGACGAGTCGGAATACCAGCATCGTCTTGATGCCCTTGGAAGTCCCCAAATAGGACGAAACGCGC
modifications: expressed or natural sequence
B3: RA319 (nucleic acid)
DNA: GCGCGTCCTGGATTCGCGGAAACGCGTACAGAGAATACCAGCATCGTCTTGATGCCCTTGGAAGTCTCTCCAGCTGACGAGTCCCAAATAGGACGAAACGCGC
modifications: expressed or natural sequence
B4: RA322 (nucleic acid)
DNA: GCGCGTCCTGGATTCGCGGAGAATACCAGCATCGTCTTGATGCCCTTGGAAGTCTAAACGCGTACATCCAGCTGACGAGTCCCAAATAGGACGAAACGCGC
modifications: expressed or natural sequence
B5: RA326 (nucleic acid)
DNA: GCTGTCACCGGAATACCAGCATCGTCTTGATGCCCTTGGAAGTCCGGTCTGATGAGTCCCTTGAGGACGAAACAGC
modifications: expressed or natural sequence
B6: RA321 (nucleic acid)
DNA: GCGCGTCCTGGATTCGCGGAAACGCGTACATCCAGCTAGTGATACCAGCATCGTCTTGATGCCCTTGGCAGCACTGACGAGTCCCAAATAGGACGAAACGCGC
modifications: expressed or natural sequence
B7: RA315 (nucleic acid)
DNA: GCGCGTCCTGGATTCGCGGAAACGCGTACATCCAGCTGACGAGTCCCAAATAGGACGAACGAGAATACCAGCATCGTCTTGATGCCCTTGGAAGTCTCGACGCGC
modifications: expressed or natural sequence
B8: RA331 (nucleic acid)
DNA: GCGCGTCCTGGGAATACCAGCATCGTCTTGATGCCCTTGGAAGTCCGATTCGCGGAAACGCGTACATCCAGCTGACGAGTCCCAAATAGGACGAAACGCGC
modifications: expressed or natural sequence
B9: RA320 (nucleic acid)
DNA: GCGCGTCCTGGATTCGCGGAAACGCGTACATCCAGCTGACGAGTAGTGATACCAGCATCGTCTTGATGCCCTTGGCAGCACTCCCAAATAGGACGAAACGCGC
modifications: expressed or natural sequence
B10: RA313 (nucleic acid)
DNA: GCGCGTCCTGGATTCGCGGAAACGCGTACATCCAGCTGACGAGTCCCAACGGAATACCAGCATCGTCTTGATGCCCTTGGAAGTCCGATAGGACGAAACGCGC
modifications: expressed or natural sequence
B11: RA318 (nucleic acid)
DNA: GCGGAATACCAGCATCGTCTTGATGCCCTTGGAAGTCCGCGCGTCCTGGATTCGCGGAAACGCGTACATCCAGCTGACGAGTCCCAAATAGGACGAAACGCGC
modifications: expressed or natural sequence
B12: RA311 (nucleic acid)
DNA: GCGCGTCCTGGATTCGCGGAAACGCGTCGAGAATACCAGCATCGTCTTGATGCCCTTGGAAGTCTCGACATCCAGCTGACGAGTCCCAAATAGGACGAAACGCGC
modifications: expressed or natural sequence
B13: RA329 (nucleic acid)
DNA: GCGCGTCCTGGATTCGCGGAAACGCGTACATCCAGCTGACGAGTCCCAAATAGGACGAAACAGTGATACCAGCATCGTCTTGATGCCCTTGGCAGCACTGCGC
modifications: expressed or natural sequence
B14: RA323 (nucleic acid)
DNA: GCGCGTCCTGGATTCGCGCGGAATACCAGCATCGTCTTGATGCCCTTGGAAGTCCGGAAACGCGTACATCCAGCTGACGAGTCCCAAATAGGACGAAACGCGC
modifications: expressed or natural sequence
B15: RA328 (nucleic acid)
DNA: GCGCGTCCTGGATTCGCGGAAACGCGTACATCCAGCTGACAGTGATACCAGCATCGTCTTGATGCCCTTGGCAGCACTGAGTCCCAAATAGGACGAAACGCGC
modifications: expressed or natural sequence
B16: RA327 (nucleic acid)
DNA: GCGCGTCCTGGATTCGCGGAAACGCGTAGTGATACCAGCATCGTCTTGATGCCCTTGGCAGCACTACATCCAGCTGACGAGTCCCAAATAGGACGAAACGCGC
modifications: expressed or natural sequence
B17: RA324 (nucleic acid)
DNA: GCGCGTCCTGGATTCGCGGAAACCGGAATACCAGCATCGTCTTGATGCCCTTGGAAGTCCGGCGTACATCCAGCTGACGAGTCCCAAATAGGACGAAACGCGC
modifications: expressed or natural sequence
B18: RA334 (nucleic acid)
DNA: GCGCGTCCTGGATTCGCGGAAACGCGTACCCGGAATACCAGCATCGTCTTGATGCCCTTGGAAGTCCGGATCCAGCTGACGAGTCCCAAATAGGACGAAACGCGC
modifications: expressed or natural sequence
B19: RA314 (nucleic acid)
DNA: GCGCGTCCTGGATTCGCGGAAACGCGTACATCCAGCTGACGAGTCCCAAATAGGGAATACCAGCATCGTCTTGATGCCCTTGGAAGTCCGACGAAACGCGC
modifications: expressed or natural sequence
B20: RA333 (nucleic acid)
DNA: GCGCGTCCTGGATTCGCGGAAACGCGTACATCCAGCTGACGAGTCCCAAAGAATACCAGCATCGTCTTGATGCCCTTGGAAGTCTATAGGACGAAACGCGC
modifications: expressed or natural sequence
B21: RA312 (nucleic acid)
DNA: GCGCGTCCTGGATTCGCGGAAACGCGTACATCCAGCTGACGAGGAATACCAGCATCGTCTTGATGCCCTTGGAAGTCCGTCCCAAATAGGACGAAACGCGC
modifications: expressed or natural sequence
B22: RA325 (nucleic acid)
DNA: GCGCGTCCTGGATTCGCGGAAACGCGTACATCCAGCTGACGAGTCCCAAATAGGAGGAATACCAGCATCGTCTTGATGCCCTTGGAAGTCCCAAAACGCGC
modifications: expressed or natural sequence
B23: RA317 (nucleic acid)
DNA: GCGCGTCCTGGATTCGCGGAAACGCGTACATCCAGCTGACGAGTCCCAAATAGCCGGAATACCAGCATCGTCTTGATGCCCTTGGAAGTCCGGGACGAAACGCGC
modifications: expressed or natural sequence
B24: RA309 (nucleic acid)
DNA: GCGCGAGAATACCAGCATCGTCTTGATGCCCTTGGAAGTCTTCCTGGATTCGCGGAAACGCGTACATCCAGCTGACGAGTCCCAAATAGGACGAAACGCGC
modifications: expressed or natural sequence
B25: RA310 (nucleic acid)
DNA: GCGCGTCCTGGATTCGCGGAAACGCGTACATCCAGCTGACGAGTCCCAAATAGAATACCAGCATCGTCTTGATGCCCTTGGAAGTCTAGGACGAAACGCGC
modifications: expressed or natural sequence
B26: RA316 (nucleic acid)
DNA: GCGCGTCCTGGATGGAATACCAGCATCGTCTTGATGCCCTTGGAAGTCCTCGCGGAAACGCGTACATCCAGCTGACGAGTCCCAAATAGGACAAAACGCGC
modifications: expressed or natural sequence
B27: RA032 (nucleic acid)
DNA: GCGCGTCCTGGATTCGCGGAAAAGTGATACCAGCATCGTCTTGATGCCCTTGGCAGCACTCGCGTACATCCAGCTGACGAGTCCCAAATAGGACGAAACGCGC
modifications: expressed or natural sequence
B28: RA030 (nucleic acid)
DNA: GCGCGTCCTGGATTCGCGGAAACGCGTACATCCAGCTGACGAGTCCCAAATAGGACGAAACGAGAATACCAGCATCGTCTTGATGCCCTTGGAAGTCTCGCGC
modifications: expressed or natural sequence
B29: RA031 (nucleic acid)
DNA: GCGCGTCCGAGAATACCAGCATCGTCTTGATGCCCTTGGAAGTCTCTGGATTCGCGGAAACGCGTACATCCAGCTGACGAGTCCCAAATAGGACGAAACGCGC
modifications: expressed or natural sequence

The molecules below were run on Renilla luciferase RNA (assay: Barcoded aptazyme variant library screen: un-cleaved Renilla luciferase RNA by barcode read counts, HEK293-T cells). Details: un-cleaved Renilla luciferase RNA by barcode read counts; with 1 mM theophylline (ON) over without theophylline (OFF); HEK293-T cells; triplicate.
Type: cell-based
Summary of the method: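 Aptazyme variants (seven theophylline aptamers inserted after each T3H48 ribozyme nucleotide, 9-nt barcoded) cloned into the 3′ UTR of Renilla luciferase in psiCHECK-2; cells cultured ± theophylline, in triplicate. RNA and DNA barcodes amplified and sequenced; normalized read counts gave un-cleaved RNA fraction and ON/OFF fold-change.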
B1 was tested, and the “Fold change in RNA expression between the ON state and the OFF state” value (“Fold change” below) was 0.9. For B2, the “Fold change” value was 0.9. B3 was tested, and the “Fold change” value was 0.9. In the case of B4, the “Fold change” value is reported as 0.9. For B5, the “Fold change” value was 0.9. With B6 the “Fold change” value was 0.9. In the case of B7, the “Fold change” value is reported as 1.0. In the case of B8, the “Fold change” value is reported as 0.9. For B9, the “Fold change” value was 0.9. B10 was tested, and the “Fold change” value was 1.0. In the case of B11, the “Fold change” value is reported as 0.9. In the case of B12, the “Fold change” value is reported as 1.0. In the case of B13, the “Fold change” value is reported as 0.9. In the case of B14, the “Fold change” value is reported as 0.9. For B15, the “Fold change” value was 0.9. In the case of B16, the “Fold change” value is reported as 0.9. For B17, the “Fold change” value was 0.9. For B18, the “Fold change” value was 0.9. With B19 the “Fold change” value was 1.0. In the case of B20, the “Fold change” value is reported as 0.9. In the case of B21, the “Fold change” value is reported as 1.0. In the case of B22, the “Fold change” value is reported as 0.9. With B23 the “Fold change” value was 0.9. For B24, the “Fold change” value was 1.0. In the case of B25, the “Fold change” value is reported as 1.0. In the case of B26, the “Fold change” value is reported as 0.9.

Same assay, conditions: un-cleaved Renilla luciferase RNA, HEK293-T cells cultured with 1 mM theophylline (ON) over without theophylline (OFF); barcode read counts, triplicate
In the case of B27, the “Fold change” value is reported as 2.3 fold. For B28, the “Fold change” value was 2.3 fold. In the case of B29, the “Fold change” value is reported as 2.3 fold.
